What all share (test): SPR; Biacore T200, CM5 chip with immobilised anti-His antibody, 20 °C; His-tagged receptor or antigen captured; serial dilutions of anti-CD20 X-body, IgG or IgA injected (120 s binding, 240 s dissociation, 30 µL/min); 1:1 binding kinetic model or steady-state affinity model
Holding throughout (conditions): both partners purified

Assay [1] deals with T1, FcγRIIb (human, UniProt P31994 43-217).
T1 construct: human FcγRIIb, extracellular domain; source: HEK293F, secreted, purified (HisTrap HP); not shown: His6, C-terminal, kept
T1 sequence (looked up): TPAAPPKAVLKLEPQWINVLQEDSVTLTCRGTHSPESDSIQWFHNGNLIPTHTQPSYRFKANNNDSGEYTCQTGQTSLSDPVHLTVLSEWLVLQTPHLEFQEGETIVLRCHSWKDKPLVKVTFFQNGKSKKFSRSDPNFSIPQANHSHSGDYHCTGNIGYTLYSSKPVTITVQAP

The target in assay [2] is T2, FcγRIIIa^F158 (human, UniProt P08637 17-208).
T2 construct: source: HEK293F, secreted, purified (HisTrap HP); not shown: His6, C-terminal, kept
T2 sequence (P08637 17-208): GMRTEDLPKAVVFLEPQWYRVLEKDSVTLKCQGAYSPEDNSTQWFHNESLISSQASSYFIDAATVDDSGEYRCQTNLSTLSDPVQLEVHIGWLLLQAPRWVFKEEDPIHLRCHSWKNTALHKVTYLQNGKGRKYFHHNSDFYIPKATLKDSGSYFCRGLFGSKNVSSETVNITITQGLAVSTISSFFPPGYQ

In assay [3] the target is T3, FcγRIIa^H131 (human, UniProt P12318 34-217).
T3 construct: The methods name FcγRIIa only; source: HEK293F, secreted, purified (HisTrap HP); not shown: His6, C-terminal, kept
T3 sequence (looked up): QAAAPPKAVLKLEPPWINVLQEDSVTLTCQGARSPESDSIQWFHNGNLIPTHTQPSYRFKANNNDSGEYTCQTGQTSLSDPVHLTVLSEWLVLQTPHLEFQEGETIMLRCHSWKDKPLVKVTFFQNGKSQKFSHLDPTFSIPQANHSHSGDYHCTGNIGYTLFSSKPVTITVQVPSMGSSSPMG

For assay [4], the target named is T4, CD20 (human, UniProt P11836 1-297).
T4 construct: CD20, the antigen of rituximab; His-tagged, captured on the anti-His chip; also called antigen CD20; hCD20
T4 sequence (looked up): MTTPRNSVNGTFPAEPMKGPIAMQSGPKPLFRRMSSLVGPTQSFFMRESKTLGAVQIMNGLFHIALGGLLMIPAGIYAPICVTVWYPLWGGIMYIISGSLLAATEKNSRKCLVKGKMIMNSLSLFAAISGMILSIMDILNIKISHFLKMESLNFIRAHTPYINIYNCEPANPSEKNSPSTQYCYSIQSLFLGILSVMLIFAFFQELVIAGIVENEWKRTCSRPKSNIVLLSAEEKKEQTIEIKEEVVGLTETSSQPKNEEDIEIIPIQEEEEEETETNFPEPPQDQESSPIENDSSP

B1: Rituximab X-body (antibody, human IgG1, kappa)
heavy: not shown
chain: QIVLSQSPAILSASPGEKVTMTCRASSSVSYIHWFQQKPGSSPKPWIYATSNLASGVPVRFSGSGSGTSYSLTISRVEAEDAATYYCQQWTSNPPTFGGGTKLEIKRTVAAPSVFIFPPSDEQLKSGTASVVCLLNNFYPREAKVQWKVDNALQSGNSQESVTEQDSKDSTYSLSSTLTLSKADYEKHKVYACEVTHQGLSSPVTKSFNRGECGGGGSGGGGSGGGGSGGGGSGGGGSGGGGSVPPPPPCCHPRLSLHRPALEDLLLGSEANLTCTLTGLRDASGATFTWTPSSGKSAVQGPPERDLCGCYSVSSVLPGCAQPWNHGETFTCTAAHPELKTPLTANITKSGNTFRPEVHLLPPPSEELALNELVTLTCLARGFSPKDVLVRWLQGSQELPREKYLTWASRQEPSQGTTTYAVTSILRVAAEDWKKGETFSCMVGHEALPLAFTQKTIDRMAGK
notes: 6×G4S linker; IgA2 Fc (hinge, CH2, CH3) without the tailpiece region; Tetramer of two heavy chains and two chimeric chains: two Fabs, one IgG1 Fc, one IgA2 Fc; also called anti-CD20 X-body; anti-human CD20 X-body with 6×G4S linker; source: HEK293F, transfected (pTT5), purified (HiTrap Protein A, Superdex 200 Increase); copies: 2 + 2
In the case of B1, the Kd in assay [1] stood at 0.00422 nM; in assay [2] it was 0.0216 nM; in assay [3] it was 0.0364 nM; in assay [4], 8.04 nM.

Broadly, the Kd is the constant that tells how readily two partners part at equilibrium.

These data come from paper PMC9706586 (Theranostics, 2022).
